Results from patent US20200095598A1 (COMMONWEALTH SCIENTIFIC AND INDUSTRIAL RESEARCH ORGANISATION, published 2020).
Read-outs that look alike come from different tables or passages of the source.

Tests used:
[1] = target: pFAγ::NifD::FLAG fusion polypeptide (Klebsiella pneumoniae (NifD part); Arabidopsis thaliana (pFAγ MTP)); assay: cell-based or functional assay
[2] = test system: pFAγ::NifD::HA fusion polypeptide
[3] = target: the molecule itself; assay: SDS-PAGE and Western blot of N. benthamiana leaf extracts; self-association (band at about double the molecular weight)
[4] = target: NifD polypeptide encoded by pMIT2.1 (wild-type nitrogenase gene cluster) in E. coli, P00466
[5] = target: T1, FAγ^51::NifD::HA fusion polypeptide (constructs SN6, SN7, SN8)
T1 chain: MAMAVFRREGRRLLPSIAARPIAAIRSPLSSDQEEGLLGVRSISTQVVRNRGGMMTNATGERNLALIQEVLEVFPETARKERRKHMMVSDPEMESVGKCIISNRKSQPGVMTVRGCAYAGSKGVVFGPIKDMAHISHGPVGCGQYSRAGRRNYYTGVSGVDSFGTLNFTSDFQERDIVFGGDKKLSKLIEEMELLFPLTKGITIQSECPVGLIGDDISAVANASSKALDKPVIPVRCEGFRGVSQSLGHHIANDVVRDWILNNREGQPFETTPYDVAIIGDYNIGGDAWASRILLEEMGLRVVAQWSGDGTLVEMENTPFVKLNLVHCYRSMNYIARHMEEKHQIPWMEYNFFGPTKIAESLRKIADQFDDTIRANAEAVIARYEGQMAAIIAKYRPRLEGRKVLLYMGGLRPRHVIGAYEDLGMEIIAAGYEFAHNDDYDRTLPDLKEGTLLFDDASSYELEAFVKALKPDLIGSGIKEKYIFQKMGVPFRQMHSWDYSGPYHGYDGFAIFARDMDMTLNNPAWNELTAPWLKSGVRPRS

[6] = target: T2, pFAγ::NifD::HA fusion polypeptide
T2 chain: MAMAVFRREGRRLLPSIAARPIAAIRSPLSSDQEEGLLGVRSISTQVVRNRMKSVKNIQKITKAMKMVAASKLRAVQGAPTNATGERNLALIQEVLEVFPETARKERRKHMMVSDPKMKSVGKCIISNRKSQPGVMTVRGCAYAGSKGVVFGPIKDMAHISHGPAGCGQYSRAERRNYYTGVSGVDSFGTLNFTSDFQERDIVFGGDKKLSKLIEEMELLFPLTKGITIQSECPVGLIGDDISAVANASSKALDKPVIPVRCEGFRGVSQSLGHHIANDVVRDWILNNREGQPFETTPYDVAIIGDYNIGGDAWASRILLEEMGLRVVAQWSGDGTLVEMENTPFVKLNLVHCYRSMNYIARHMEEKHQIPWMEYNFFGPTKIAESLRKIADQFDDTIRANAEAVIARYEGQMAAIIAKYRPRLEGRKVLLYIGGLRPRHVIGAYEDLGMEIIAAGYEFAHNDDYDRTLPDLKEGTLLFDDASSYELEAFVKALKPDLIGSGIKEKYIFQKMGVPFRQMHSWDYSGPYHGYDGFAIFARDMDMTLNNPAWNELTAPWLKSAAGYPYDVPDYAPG

NifD polypeptide encoded by pMIT2.1 (wild-type nitrogenase gene cluster) in E. coli, P00466, sequence (P00466 whole entry, looked up, the tested form may be a part): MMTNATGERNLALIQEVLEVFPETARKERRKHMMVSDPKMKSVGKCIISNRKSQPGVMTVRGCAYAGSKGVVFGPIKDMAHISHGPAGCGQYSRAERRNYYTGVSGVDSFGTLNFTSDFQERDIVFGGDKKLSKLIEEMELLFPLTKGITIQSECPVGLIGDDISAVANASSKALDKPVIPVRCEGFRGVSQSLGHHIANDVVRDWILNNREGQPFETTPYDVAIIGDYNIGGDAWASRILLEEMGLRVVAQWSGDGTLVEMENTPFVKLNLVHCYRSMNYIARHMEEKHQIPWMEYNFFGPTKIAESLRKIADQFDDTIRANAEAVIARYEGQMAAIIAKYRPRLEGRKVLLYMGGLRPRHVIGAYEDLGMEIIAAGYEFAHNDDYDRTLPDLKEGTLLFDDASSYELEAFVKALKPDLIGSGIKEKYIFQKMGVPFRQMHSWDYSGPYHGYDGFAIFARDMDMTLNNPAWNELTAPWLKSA

pFAγ::NifK fusion polypeptide (pRA25), lacking any C-terminal extension (enzyme)
level of NifD::FLAG accumulation (band intensity normalised to a background band, Western blot anti-FLAG), co-expression with pRA25 against pRA11 (NifK with C-terminal extension) [1]: 50%

pFAγ::NifH::HA fusion polypeptide
extent of MTP processing of NifD::HA on co-expression (Western blot) [2]: the extent of processing of the MTP sequence fused to NifD::HA was increased in the presence of the NifK and NifH polypeptides

B1: pFAγ::NifB::HA fusion polypeptide (enzyme)
chain: ISTQVVRNRMKSVKNIQKITKAMKMVAASKLRAVQGAPTSCSSFSGGKACRPADDSALTPLVADKAAAHPCYSRHGHHRFARMHLPVAPACNLQCNYCNRKFDCSNESRPGVSSTLLTPEQAVVKVRQVAQAIPQLSVVGIAGPGDPLANIARTFRTLELIREQLPDLKLCLSTNGLVLPDAVDRLLDVGVDHVTVTINTLDAEIAAQIYAWLWLDGERYSGREAGEILIARQLEGVRRLTAKGVLVKINSVLIPGINDSGMAGVSRALRASGAFIHNIMPLIARPEHGTVFGLNGQPEPDAETLAATRSRCGEVMPQMTHCHQCRADAIGMLGEDRSQQFTQLPAPESLPAWLPILHQRAQLHASIATRGESEADDACLVAVASSRGDVIDCHFGHADRFYIYSLSAAGMVLVNERFTPKYCQGRDDCEPQDNAARFAAILELLADVKAVFCVRIGHTPWQQLEQEGIEPCVDGAWRPVSEVLPAWWQQRRGSWPAALPHKGVAAGGGGGYPYDVPDYAPG
notes: Expressed in N. benthamiana; also called pRA03
binding result [3]: binds

B2: pFAγ::NifY::HA fusion polypeptide (other)
chain: ISTQVVRNRMKSVKNIQKITKAMKMVAASKLRAVQGAPSDNDTLFWRMLALFQSLPDLQPAQIVDWLAQESGETLTPERLATLTQPQLAASFPSATAVMSPARWSRVMASLQGALPAHLRIVRPAQRTPQLLAAFCSQDGLVINGHFGQGRLFFIYAFDEQGGWLYDLRRYPSAPHQQEANEVRARLIEDCQLLFCQEIGGPAAARPIRHRIHPMKAQPGTTIQAQCEAINTLLAGRLPPWLAKRLNRDNPLEERVFAGGGGGYPYDVPDYAPG
notes: Expressed in N. benthamiana; also called pRA12
binding result [3]: binds

B3: modified NifK polypeptide having a 9 amino acid C-terminal extension (YPYDVPDYA), encoded by modified pMIT2.1 (protein)
chain: MSQTIDKINSCYPLFEQDEYQELFRNKRQLEEAHDAQRVQEVFAWTTTAEYEALNFRREALTVDPAKACQPLGAVLCSLGFANTLPYVHGSQGCVAYFRTYFNRHFKEPIACVSDSMTEDAAVFGGNNNMNLGLQNASALYKPEIIAVSTTCMAEVIGDDLQAFIANAKKDGFVDSSIAVPHAHTPSFIGSHVTGWDNMFEGFAKTFTADYQGQPGKLPKLNLVTGFETYLGNFRVLKRMMEQMAVPCSLLSDPSEVLDTPADGHYRMYSGGTTQQEMKEAPDAIDTLLLQPWQLLKSKKVVQEMWNQPATEVAIPLGLAATDELLMTVSQLSGKPIADALTLERGRLVDMMLDSHTWLHGKKFGLYGDPDFVMGLTRFLLELGCEPTVILSHNANKRWQKAMNKMLDASPYGRDSEVFINCDLWHFRSLMFTRQPDFMIGNSYGKFIQRDTLAKGKAFEVPLIRLGFPLFDRHHLHRQTTWGYEGAMNIVTTLVNAVLEKLDSDTSQLGKTDYSFDLVRYPYDVPDYA
ethylene production in acetylene reduction assay (E. coli DH5α, modified pMIT2.1 + pN249) [4]: the 9-amino acid C-terminal extension added to NifK completely abolished ethylene production

B4: pFAγ::NifK fusion polypeptide (pRA25), lacking any C-terminal extension (protein)
chain: MAMAVFRREGRRLLPSIAARPIAAIRSPLSSDQEEGLLGVRSISTQVVRNRMKSVKNIQKITKAMKMVAASKLRAVQGAPSQTIDKINSCYPLFEQDEYQELFRNKRQLEEAHDAQRVQEVFAWTTTAEYEALNFRREALTVDPAKACQPLGAVLCSLGFANTLPYVHGSQGCVAYFRTYFNRHFKEPIACVSDSMTEDAAVFGGNNNMNLGLQNASALYKPEIIAVSTTCMAEVIGDDLQAFIANAKKDGFVDSSIAVPHAHTPSFIGSHVTGWDNMFEGFAKTFTADYQGQPGKLPKLNLVTGFETYLGNFRVLKRMMEQMAVPCSLLSDPSEVLDTPADGHYRMYSGGTTQQEMKEAPDAIDTLLLQPWQLLKSKKVVQEMWNQPATEVAIPLGLAATDELLMTVSQLSGKPIADALTLERGRLVDMMLDSHTWLHGKKFGLYGDPDFVMGLTRFLLELGCEPTVILSHNANKRWQKAMNKMLDASPYGRDSEVFINCDLWHFRSLMFTRQPDFMIGNSYGKFIQRDTLAKGKAFEVPLIRLGFPLFDRHHLHRQTTWGYEGAMNIVTTLVNAVLEKLDSDTSQLGKTDYSFDLVR
NifD::HA abundance and ratio of processed to unprocessed NifD on co-infiltration (SDS-PAGE, Western blot anti-HA) [5]: the addition of pRA25 in each case greatly enhanced NifD abundance, particularly for the combination of SN7 and pRA25. Most importantly, the ratio of processed to unprocessed NifD was enhanced by the addition of pRA25. | amount of the approximately 48 kDa NifD::HA degradation product on co-expression (Western blot anti-HA) [5]: the amount of this product was also enhanced by co-expression of pRA25 (NifK) | extent of MTP processing of NifD::HA on co-expression (Western blot) [6]: the extent of processing of the MTP sequence fused to NifD::HA was increased in the presence of the NifK and NifH polypeptides

B5: pFAγ::NifS::HA fusion polypeptide (enzyme)
chain: ISTQVVRNRMKSVKNIQKITKAMKMVAASKLRAVQGAPKQVYLDNNATTRLDPMVLEAMMPFLTDFYGNPSSIHDFGIPAQAALERAHQQAAALLGAEYPSEIIFTSCATEATATAIASAIALLPERREIITSVVEHPATLAACEHMEREGYRIHRIAVDGEGALDMAQFRAALSPRVALVSVMWANNETGVLFPIGEMAELAHEQGALFHCDAVQVVGKIPIAVGQTRIDMLSCSAHKFHGPKGVGCLYLRRGTRFRPLLRGGHQEYGRRAGTENICGIVGMGAACELANIHLPGMTHIGQLRNRLEHRLLASVPSVMVMGGGQPAVPGTVNLAFEFIEGEAILLLLNQAGIAASSGSACTSGSLEPSHVMRAMNIPYTAAHGTIRFSLSRYTREKEIDYVVATLPPIIDRLRALSPYWQNGKPRPADAVFTPVYGAGGGGGYPYDVPDYAPG
notes: Expressed in N. benthamiana; also called pRA16
binding result [3]: binds
